Eight molecules from publication PMC9584538 (Cell reports, 2022) can be followed below.

Series [1] concerns the molecule itself. The series can be described thus: SEC.
Series [2] has as its target T1, PARL-protease-activated Skd3 (human CLPB), wild type (human, UniProt Q9H078 127-707).
T1 sequence (looked up): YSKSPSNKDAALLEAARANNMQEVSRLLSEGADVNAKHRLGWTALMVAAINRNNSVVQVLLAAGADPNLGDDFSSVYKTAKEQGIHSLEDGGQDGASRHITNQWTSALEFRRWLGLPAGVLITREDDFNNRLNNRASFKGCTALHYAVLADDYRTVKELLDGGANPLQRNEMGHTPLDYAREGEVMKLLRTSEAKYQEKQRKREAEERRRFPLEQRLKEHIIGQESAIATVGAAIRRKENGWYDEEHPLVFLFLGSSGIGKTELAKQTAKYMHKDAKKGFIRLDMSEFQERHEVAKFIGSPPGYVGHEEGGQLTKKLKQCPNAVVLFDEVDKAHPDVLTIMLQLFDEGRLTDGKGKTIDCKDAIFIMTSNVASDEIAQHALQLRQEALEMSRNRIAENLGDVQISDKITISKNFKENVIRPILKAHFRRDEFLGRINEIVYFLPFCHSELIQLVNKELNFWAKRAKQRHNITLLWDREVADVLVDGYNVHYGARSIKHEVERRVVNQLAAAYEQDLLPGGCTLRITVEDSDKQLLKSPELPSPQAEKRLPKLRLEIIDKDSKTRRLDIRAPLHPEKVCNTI
The series can be described thus: FRET or BRET.

Series [3] deals with the molecule itself. In words: SEC. This is another data set of the same source.

Values joined by “and” are separate entries in the source; they are usually repeats but may differ in a detail not shown here. Identical values can stand only once. Like-named read-outs stand apart in the source and are kept apart here.

B1: _(PARL)Skd3^Δ3-4 (ankyrin repeats 3 and 4 deleted, ΔS263-K325) (enzyme, human, UniProt Q9H078 127-707, looked up)
chain: YSKSPSNKDAALLEAARANNMQEVSRLLSEGADVNAKHRLGWTALMVAAINRNNSVVQVLLAAGADPNLGDDFSSVYKTAKEQGIHSLEDGGQDGASRHITNQWTSALEFRRWLGLPAGVLITREDDFNNRLNNRAQRKREAEERRRFPLEQRLKEHIIGQESAIATVGAAIRRKENGWYDEEHPLVFLFLGSSGIGKTELAKQTAKYMHKDAKKGFIRLDMSEFQERHEVAKFIGSPPGYVGHEEGGQLTKKLKQCPNAVVLFDEVDKAHPDVLTIMLQLFDEGRLTDGKGKTIDCKDAIFIMTSNVASDEIAQHALQLRQEALEMSRNRIAENLGDVQISDKITISKNFKENVIRPILKAHFRRDEFLGRINEIVYFLPFCHSELIQLVNKELNFWAKRAKQRHNITLLWDREVADVLVDGYNVHYGARSIKHEVERRVVNQLAAAYEQDLLPGGCTLRITVEDSDKQLLKSPELPSPQAEKRLPKLRLEIIDKDSKTRRLDIRAPLHPEKVCNTI
As to B1, in “SEC [1]”, the “stoichiometry N” value stood at 12.

B2: _(PARL)Skd3^A591V (MGCA7-linked variant) (enzyme, human, UniProt Q9H078 127-707, looked up)
chain: YSKSPSNKDAALLEAARANNMQEVSRLLSEGADVNAKHRLGWTALMVAAINRNNSVVQVLLAAGADPNLGDDFSSVYKTAKEQGIHSLEDGGQDGASRHITNQWTSALEFRRWLGLPAGVLITREDDFNNRLNNRASFKGCTALHYAVLADDYRTVKELLDGGANPLQRNEMGHTPLDYAREGEVMKLLRTSEAKYQEKQRKREAEERRRFPLEQRLKEHIIGQESAIATVGAAIRRKENGWYDEEHPLVFLFLGSSGIGKTELAKQTAKYMHKDAKKGFIRLDMSEFQERHEVAKFIGSPPGYVGHEEGGQLTKKLKQCPNAVVLFDEVDKAHPDVLTIMLQLFDEGRLTDGKGKTIDCKDAIFIMTSNVASDEIAQHALQLRQEALEMSRNRIAENLGDVQISDKITISKNFKENVIRPILKAHFRRDEFLGRINEIVYFLPFCHSELIQLVNKELNFWAKRVKQRHNITLLWDREVADVLVDGYNVHYGARSIKHEVERRVVNQLAAAYEQDLLPGGCTLRITVEDSDKQLLKSPELPSPQAEKRLPKLRLEIIDKDSKTRRLDIRAPLHPEKVCNTI
As to B2, in series [2], the binding result is “binds”. Further, in “SEC [3]”, the “stoichiometry N” value was 6 and 12.

B3: _(PARL)Skd3^N496K (SCN-linked variant, sensor-1) (enzyme, human, UniProt Q9H078 127-707, looked up)
chain: YSKSPSNKDAALLEAARANNMQEVSRLLSEGADVNAKHRLGWTALMVAAINRNNSVVQVLLAAGADPNLGDDFSSVYKTAKEQGIHSLEDGGQDGASRHITNQWTSALEFRRWLGLPAGVLITREDDFNNRLNNRASFKGCTALHYAVLADDYRTVKELLDGGANPLQRNEMGHTPLDYAREGEVMKLLRTSEAKYQEKQRKREAEERRRFPLEQRLKEHIIGQESAIATVGAAIRRKENGWYDEEHPLVFLFLGSSGIGKTELAKQTAKYMHKDAKKGFIRLDMSEFQERHEVAKFIGSPPGYVGHEEGGQLTKKLKQCPNAVVLFDEVDKAHPDVLTIMLQLFDEGRLTDGKGKTIDCKDAIFIMTSKVASDEIAQHALQLRQEALEMSRNRIAENLGDVQISDKITISKNFKENVIRPILKAHFRRDEFLGRINEIVYFLPFCHSELIQLVNKELNFWAKRAKQRHNITLLWDREVADVLVDGYNVHYGARSIKHEVERRVVNQLAAAYEQDLLPGGCTLRITVEDSDKQLLKSPELPSPQAEKRLPKLRLEIIDKDSKTRRLDIRAPLHPEKVCNTI
Turning to B3, the binding result in series [2] is “binds”. Also, in the series “SEC [3]”, the “stoichiometry N” value is 6.

B4: _(PARL)Skd3^K387A (Walker A) (enzyme, human, UniProt Q9H078 127-707, looked up)
chain: YSKSPSNKDAALLEAARANNMQEVSRLLSEGADVNAKHRLGWTALMVAAINRNNSVVQVLLAAGADPNLGDDFSSVYKTAKEQGIHSLEDGGQDGASRHITNQWTSALEFRRWLGLPAGVLITREDDFNNRLNNRASFKGCTALHYAVLADDYRTVKELLDGGANPLQRNEMGHTPLDYAREGEVMKLLRTSEAKYQEKQRKREAEERRRFPLEQRLKEHIIGQESAIATVGAAIRRKENGWYDEEHPLVFLFLGSSGIGATELAKQTAKYMHKDAKKGFIRLDMSEFQERHEVAKFIGSPPGYVGHEEGGQLTKKLKQCPNAVVLFDEVDKAHPDVLTIMLQLFDEGRLTDGKGKTIDCKDAIFIMTSNVASDEIAQHALQLRQEALEMSRNRIAENLGDVQISDKITISKNFKENVIRPILKAHFRRDEFLGRINEIVYFLPFCHSELIQLVNKELNFWAKRAKQRHNITLLWDREVADVLVDGYNVHYGARSIKHEVERRVVNQLAAAYEQDLLPGGCTLRITVEDSDKQLLKSPELPSPQAEKRLPKLRLEIIDKDSKTRRLDIRAPLHPEKVCNTI
For the molecule B4, the binding result in series [2] is reported as “binds”.

B5: _(PARL)Skd3^R408G (MGCA7-linked variant) (enzyme, human, UniProt Q9H078 127-707, looked up)
chain: YSKSPSNKDAALLEAARANNMQEVSRLLSEGADVNAKHRLGWTALMVAAINRNNSVVQVLLAAGADPNLGDDFSSVYKTAKEQGIHSLEDGGQDGASRHITNQWTSALEFRRWLGLPAGVLITREDDFNNRLNNRASFKGCTALHYAVLADDYRTVKELLDGGANPLQRNEMGHTPLDYAREGEVMKLLRTSEAKYQEKQRKREAEERRRFPLEQRLKEHIIGQESAIATVGAAIRRKENGWYDEEHPLVFLFLGSSGIGKTELAKQTAKYMHKDAKKGFIGLDMSEFQERHEVAKFIGSPPGYVGHEEGGQLTKKLKQCPNAVVLFDEVDKAHPDVLTIMLQLFDEGRLTDGKGKTIDCKDAIFIMTSNVASDEIAQHALQLRQEALEMSRNRIAENLGDVQISDKITISKNFKENVIRPILKAHFRRDEFLGRINEIVYFLPFCHSELIQLVNKELNFWAKRAKQRHNITLLWDREVADVLVDGYNVHYGARSIKHEVERRVVNQLAAAYEQDLLPGGCTLRITVEDSDKQLLKSPELPSPQAEKRLPKLRLEIIDKDSKTRRLDIRAPLHPEKVCNTI
As to B5, the binding result in series [2] is on record as “binds”. In “SEC [3]”, the “stoichiometry N” value worked out at 12.

B6: _(PARL)Skd3^R620C (SCN-linked variant, sensor-2) (enzyme, human, UniProt Q9H078 127-707, looked up)
chain: YSKSPSNKDAALLEAARANNMQEVSRLLSEGADVNAKHRLGWTALMVAAINRNNSVVQVLLAAGADPNLGDDFSSVYKTAKEQGIHSLEDGGQDGASRHITNQWTSALEFRRWLGLPAGVLITREDDFNNRLNNRASFKGCTALHYAVLADDYRTVKELLDGGANPLQRNEMGHTPLDYAREGEVMKLLRTSEAKYQEKQRKREAEERRRFPLEQRLKEHIIGQESAIATVGAAIRRKENGWYDEEHPLVFLFLGSSGIGKTELAKQTAKYMHKDAKKGFIRLDMSEFQERHEVAKFIGSPPGYVGHEEGGQLTKKLKQCPNAVVLFDEVDKAHPDVLTIMLQLFDEGRLTDGKGKTIDCKDAIFIMTSNVASDEIAQHALQLRQEALEMSRNRIAENLGDVQISDKITISKNFKENVIRPILKAHFRRDEFLGRINEIVYFLPFCHSELIQLVNKELNFWAKRAKQRHNITLLWDREVADVLVDGYNVHYGACSIKHEVERRVVNQLAAAYEQDLLPGGCTLRITVEDSDKQLLKSPELPSPQAEKRLPKLRLEIIDKDSKTRRLDIRAPLHPEKVCNTI
Regarding B6, the binding result in series [2] is reported as “binds”. Further, the “stoichiometry N” value in “SEC [3]” was 12.

B7: _(PARL)Skd3^R475Q (MGCA7-linked variant) (enzyme, human, UniProt Q9H078 127-707, looked up)
chain: YSKSPSNKDAALLEAARANNMQEVSRLLSEGADVNAKHRLGWTALMVAAINRNNSVVQVLLAAGADPNLGDDFSSVYKTAKEQGIHSLEDGGQDGASRHITNQWTSALEFRRWLGLPAGVLITREDDFNNRLNNRASFKGCTALHYAVLADDYRTVKELLDGGANPLQRNEMGHTPLDYAREGEVMKLLRTSEAKYQEKQRKREAEERRRFPLEQRLKEHIIGQESAIATVGAAIRRKENGWYDEEHPLVFLFLGSSGIGKTELAKQTAKYMHKDAKKGFIRLDMSEFQERHEVAKFIGSPPGYVGHEEGGQLTKKLKQCPNAVVLFDEVDKAHPDVLTIMLQLFDEGQLTDGKGKTIDCKDAIFIMTSNVASDEIAQHALQLRQEALEMSRNRIAENLGDVQISDKITISKNFKENVIRPILKAHFRRDEFLGRINEIVYFLPFCHSELIQLVNKELNFWAKRAKQRHNITLLWDREVADVLVDGYNVHYGARSIKHEVERRVVNQLAAAYEQDLLPGGCTLRITVEDSDKQLLKSPELPSPQAEKRLPKLRLEIIDKDSKTRRLDIRAPLHPEKVCNTI
B7: the binding result in series [2] is listed as “binds”. Also, the “stoichiometry N” value in the series “SEC [3]” turned out to be 12.

B8: _(PARL)Skd3^R561G (SCN-linked variant, Arg finger) (enzyme, human, UniProt Q9H078 127-707, looked up)
chain: YSKSPSNKDAALLEAARANNMQEVSRLLSEGADVNAKHRLGWTALMVAAINRNNSVVQVLLAAGADPNLGDDFSSVYKTAKEQGIHSLEDGGQDGASRHITNQWTSALEFRRWLGLPAGVLITREDDFNNRLNNRASFKGCTALHYAVLADDYRTVKELLDGGANPLQRNEMGHTPLDYAREGEVMKLLRTSEAKYQEKQRKREAEERRRFPLEQRLKEHIIGQESAIATVGAAIRRKENGWYDEEHPLVFLFLGSSGIGKTELAKQTAKYMHKDAKKGFIRLDMSEFQERHEVAKFIGSPPGYVGHEEGGQLTKKLKQCPNAVVLFDEVDKAHPDVLTIMLQLFDEGRLTDGKGKTIDCKDAIFIMTSNVASDEIAQHALQLRQEALEMSRNRIAENLGDVQISDKITISKNFKENVIRPILKAHFRRDEFLGGINEIVYFLPFCHSELIQLVNKELNFWAKRAKQRHNITLLWDREVADVLVDGYNVHYGARSIKHEVERRVVNQLAAAYEQDLLPGGCTLRITVEDSDKQLLKSPELPSPQAEKRLPKLRLEIIDKDSKTRRLDIRAPLHPEKVCNTI
With B8, the binding result in series [2] is recorded as “binds”. Moreover, in the series “SEC [3]”, the “stoichiometry N” value amounted to 12.

For orientation: stoichiometry N means the number of molecules, sites or subunits per partner or assembly.
